{"source": "the supplement of paper PMC12783771", "parents": {"B1": {"name": "library; numbered along this chain (parent)", "chain": "MNIQIGELAKRTACPVVTIRFYEQEGLLPPPGRSRGNFRLYGEEHVERLQFIRHCRSLDMPLSDVRTLLSYRKRPDQDCGEVNMLLDEHIRQVESRIGALLELKHHLVELREACSGARPAQSCGILQGLSDCVCDTRGTTAHPSD"}}, "key": {"[1]": {"variants_of": "B1", "test": "sfGFP reporter fluorescence (15 h) (µM FITC); higher = higher leak", "settings": "library round: Round 1; ligand: none", "method_in_brief": "(§1)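 With 1 µM lead chloride, 30 µM zinc acetate or no metal present, 1 μL Echo-assembled reactions were incubated 15 hr at 30 °C. They contained BL21 Star (DE3) PANOx-SP extract, 30 μg/mL GamS, the pPbrR-sfGFP reporter plasmid and PCR-made linear PbrR templates Echo-normalized to 5 nM. Endpoint sfGFP fluorescence was read on a Synergy Neo2 at 485/528 nm against FITC standards in 50 mM sodium borate pH 8.5. Results are expressed as µM FITC.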"}, "[2]": {"variants_of": "B1", "test": "sfGFP reporter fluorescence (15 h) (µM FITC); higher = stronger transcriptional activation", "settings": "library round: Round 1", "method_in_brief": "as §1"}}, "note": "± gives the standard deviation of the averaged measurements."}
{"variant": "MNIQIGELAKRTACPVVTIRFYEQEGLLPPPGRSRGNFRLYGEEHVERLQFIRHCRSLDMPLSDVRTLLSYRKRPDQDCGEVNMLLDEHIRQVESRIGALLELKHHLVELREACSGARPAQSCGILQGLSCCVCDTRGTTAHRSD", "note": "[D131C P143R]", "values": [{"measurement": "sfGFP reporter fluorescence", "setting": "[1]", "result": "0.0674 ± 0.0018"}, {"measurement": "sfGFP reporter fluorescence", "setting": "[2]; ligand: 1 µM Pb", "result": "0.0812 ± 0.0024"}, {"measurement": "sfGFP reporter fluorescence", "setting": "[2]; ligand: 30 µM Zn", "result": "0.196 ± 0.0083"}]}
{"variant": "MNIQIGELAKRTACPVVTIRFYEQEGLLPPPGRSRGNFRLYGEEHVERLQFIRHCRSLDMPLSDVRTLLSYRKRPDQDCGEVTMLLDEHIRQVESRIGALLELKHHLVELRLACSGARPAQSCGILQGLSDCVCDTRGTTAHPSD", "note": "[N83T E112L]", "values": [{"measurement": "sfGFP reporter fluorescence", "setting": "[1]", "result": "0.0619 ± 0.0034"}, {"measurement": "sfGFP reporter fluorescence", "setting": "[2]; ligand: 1 µM Pb", "result": "0.0766 ± 0.0039"}, {"measurement": "sfGFP reporter fluorescence", "setting": "[2]; ligand: 30 µM Zn", "result": "0.125 ± 0.0069"}]}
{"variant": "MNIQIGELAKRTACPVVTIRFYEQEGLLPPPGRSRGNFRLYGEEHVERLQFIRHCRSLDMDLSKVRTLLSYRKRPDQDCGEVNMLLDEHIRQVESRIGALLELKHHLVELREACSGARPAQSCGILQGLSDCVCDTRGTTAHPSD", "note": "[P61D D64K]", "values": [{"measurement": "sfGFP reporter fluorescence", "setting": "[1]", "result": "0.168 ± 0.0064"}, {"measurement": "sfGFP reporter fluorescence", "setting": "[2]; ligand: 1 µM Pb", "result": "0.454 ± 0.038"}, {"measurement": "sfGFP reporter fluorescence", "setting": "[2]; ligand: 30 µM Zn", "result": "1.44 ± 0.17"}]}
{"variant": "MNIQIGELAKRTACPVVTIRFYEQEGLLPPPGASRLNFRLYGEEHVERLQFIRHCRSLDMPLSDVRTLLSYRKRPDQDCGEVNMLLDEHIRQVESRIGALLELKHHLVELREACSGARPAQSCGILQGLSDCVCDTRGTTAHPSD", "note": "[R33A G36L]", "values": [{"measurement": "sfGFP reporter fluorescence", "setting": "[1]", "result": "0.0634 ± 0.0035"}, {"measurement": "sfGFP reporter fluorescence", "setting": "[2]; ligand: 1 µM Pb", "result": "0.0567 ± 0.0051"}, {"measurement": "sfGFP reporter fluorescence", "setting": "[2]; ligand: 30 µM Zn", "result": "0.0604 ± 0.00092"}]}
{"variant": "MNIQIGELAKRTACPVVTIRFYEQEGLLPPPGRSRGNFRLYGEEHVERLQFIRHCRSLDMPLSDVRTLLSYRKRPDQDCGEVNMLLDEHIRQVESRSGALLELVHHLVELREACSGARPAQSCGILQGLSDCVCDTRGTTAHPSD", "note": "[I97S K104V]", "values": [{"measurement": "sfGFP reporter fluorescence", "setting": "[1]", "result": "0.0836 ± 0.0026"}, {"measurement": "sfGFP reporter fluorescence", "setting": "[2]; ligand: 1 µM Pb", "result": "0.247 ± 0.016"}, {"measurement": "sfGFP reporter fluorescence", "setting": "[2]; ligand: 30 µM Zn", "result": "0.825 ± 0.05"}]}
{"variant": "MNIQIGELAKRTACPVVTIRFYEQEGLLPPPGRSRGNFRLYGEEHVERLQFIRHCRSLDMPISDVRTLLSYRKRPDQDCGEVNMLLDEHIRQVESRIGALLELKHHLVELLEACSGARPAQSCGILQGLSDCVCDTRGTTAHPSD", "note": "[L62I R111L]", "values": [{"measurement": "sfGFP reporter fluorescence", "setting": "[1]", "result": "0.0639 ± 0.002"}, {"measurement": "sfGFP reporter fluorescence", "setting": "[2]; ligand: 1 µM Pb", "result": "0.0671 ± 0.0036"}, {"measurement": "sfGFP reporter fluorescence", "setting": "[2]; ligand: 30 µM Zn", "result": "0.143 ± 0.0089"}]}
{"variant": "MNIQIGELAKRTACPVVTIRFYEQEGLLPPPGRSRGNFRLYGEEHVERLQFIRHCRSLDMPLSDVRTLLSYRKRPDQDCGEVTMLLDEHIRQVESRTGALLELKHHLVELREACSGARPAQSCGILQGLSDCVCDTRGTTAHPSD", "note": "[N83T I97T]", "values": [{"measurement": "sfGFP reporter fluorescence", "setting": "[1]", "result": "0.06157 ± 0.00037"}, {"measurement": "sfGFP reporter fluorescence", "setting": "[2]; ligand: 1 µM Pb", "result": "0.0658 ± 0.0032"}, {"measurement": "sfGFP reporter fluorescence", "setting": "[2]; ligand: 30 µM Zn", "result": "0.102 ± 0.0039"}]}
